Several values for one entry are separate records, joined by “and”; a condition that tells them apart may be missing. Equal values may be shown once. Entries after “also recorded” stand apart in the source; their conditions may differ.
Assays:
CatD [1] = biological target: T1, CatD (Homo sapiens, UniProt P07339); assay: Competitive inhibition of CatD activity, fluorogenic substrate (fluorescence dequenching); type: biochemical; details: mean ± SEM of 4–8 replicates (Fig. 4f)
T1 construct: purchased Enzo Life Sciences
Description: To address this, we tested the extent to which different peptides at identical concentrations inhibited CatD activity monitored with a fluorogenic substrate.
For the determination of the pH dependence of Aβ degradation in soluble brain extracts, freshly harvested brain tissue from 15-day-old mice was dissociated in 20 mM Tris-HCl, pH 7.4 at 4 °C using a Dounce homogenizer, then centrifuged at 1000×g. The resulting supernatant was diluted 1:20 in Britton-Robinson buffers of different pHs, and CatD activity was quantified either using a well-characterized fluorescence polarization-based Aβ degradation assay as described or by monitoring hydrolysis of the CatD-specific fluorogenic substrate, Mca-[…]-Dnp. Kinetic experiments were conducted using freshly prepared, monomeric Aβ peptides separated from aggregated species by size-exclusion chromatography (SEC) and characterized as described. Aβ peptides and PepA were diluted in neutral Dilution Buffer (20 mM Tris, pH 8.0 supplemented with 0.1% BSA), with addition of DMSO as appropriate, and reactions were initiated by transfer into Assay Buffer (60 mM Na-citrate; 80 mM Na2HPO4, pH 4.0; Sigma) supplemented with purified human CatD (Enzo Life Sciences). Where required, reactions were terminated by adjustment to neutral pH with 10× Stop Buffer (0.2 M Tris-HCL, pH 9.5 supplemented with 10 μM PepA). […] Competitive inhibition experiments were conducted using either ELISAs, an Aβ-degradation assay or the fluorogenic substrate.

[2] = biological target: Cathepsin D (purified human CatD, Enzo Life Sciences) (human) (UniProt P07339)
[3] = biological target: T2, insulin-degrading enzyme (IDE) (Mus musculus, UniProt Q9JHR7); assay: Aβ-degrading activity in soluble brain extracts at neutral pH; type: biochemical; details: 15-day-old mice; excess insulin; pH 7.5 to 9.5
T2 construct: freshly harvested brain tissue from 15-day-old mice was dissociated in 20 mM Tris-HCl, pH 7.4; from tissue; host or cells: mouse brain, soluble extract (15-day-old mice)
Text: (§1) As an initial step towards elucidating the role of CatD in Aβ proteostasis, we quantified rates of Aβ degradation in vitro in soluble brain extracts from CatD-KO mice and wild-type controls as a function of pH, focusing on extracts from 15-day-old mice, due to the premature lethality of CatD-KO mice that occurs by ~ 4 weeks of age. Consistent with previous results, Aβ-degrading activity was present principally within two pH ranges: at neutral pH (pH 7.5 to 9.5) and—to a considerably larger extent—also at acidic pH (pH 2.5 to 4.5) (Fig. 1a). The Aβ-degrading activity at neutral pH was inhibited by excess insulin and reflects the activity of the neutral protease insulin-degrading enzyme (IDE), as shown previously by McDermott and Gibson. […] To extend and confirm these findings, we quantified Aβ degradation at pH 4.0 in soluble brain extracts from CatD-KO and WT mice, as well as heterozygous null (CatD-HET) mice (Fig. 1b). […] Consistent with this, levels of both preprocathepsin D and mature CatD protein in the CatD-HET animals were also determined to be > 50% of WT levels (Fig. 1c, d), with mature CatD protein being reduced by only 26.0 ± 14.2% relative to WT controls (p > 0.05; Fig. 1d). […]

CatD [4] = biological target: T3, CatD (Mus musculus, UniProt P18242); assay: Aβ-degrading activity in soluble brain extracts at pH 4.0; type: biochemical; details: 15-day-old mice, 4 replicates
T3 construct: freshly harvested brain tissue from 15-day-old mice was dissociated in 20 mM Tris-HCl, pH 7.4; from tissue; host or cells: mouse brain, soluble extract (15-day-old WT and CatD-HET mice)
Text: as §1

T1 sequence (P07339 65-412): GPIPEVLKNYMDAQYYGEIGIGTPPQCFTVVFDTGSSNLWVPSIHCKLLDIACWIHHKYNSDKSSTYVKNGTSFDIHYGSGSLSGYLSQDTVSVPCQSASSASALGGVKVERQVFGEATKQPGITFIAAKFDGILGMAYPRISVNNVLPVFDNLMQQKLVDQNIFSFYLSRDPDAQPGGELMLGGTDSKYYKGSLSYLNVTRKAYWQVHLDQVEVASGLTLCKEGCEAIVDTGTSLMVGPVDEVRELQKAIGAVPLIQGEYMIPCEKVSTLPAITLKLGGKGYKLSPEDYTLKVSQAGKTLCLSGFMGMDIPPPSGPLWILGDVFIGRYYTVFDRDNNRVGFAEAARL
T3 sequence (P18242 65-410): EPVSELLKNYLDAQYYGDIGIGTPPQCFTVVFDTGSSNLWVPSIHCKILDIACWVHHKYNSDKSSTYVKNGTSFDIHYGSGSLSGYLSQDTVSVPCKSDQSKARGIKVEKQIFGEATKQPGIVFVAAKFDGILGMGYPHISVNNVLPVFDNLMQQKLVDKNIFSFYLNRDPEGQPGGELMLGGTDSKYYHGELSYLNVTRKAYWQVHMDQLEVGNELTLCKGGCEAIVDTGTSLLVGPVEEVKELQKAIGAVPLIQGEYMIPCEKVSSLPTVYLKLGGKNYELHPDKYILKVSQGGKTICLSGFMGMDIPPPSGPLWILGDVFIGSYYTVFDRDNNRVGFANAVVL
T2 sequence (Q9JHR7 whole entry): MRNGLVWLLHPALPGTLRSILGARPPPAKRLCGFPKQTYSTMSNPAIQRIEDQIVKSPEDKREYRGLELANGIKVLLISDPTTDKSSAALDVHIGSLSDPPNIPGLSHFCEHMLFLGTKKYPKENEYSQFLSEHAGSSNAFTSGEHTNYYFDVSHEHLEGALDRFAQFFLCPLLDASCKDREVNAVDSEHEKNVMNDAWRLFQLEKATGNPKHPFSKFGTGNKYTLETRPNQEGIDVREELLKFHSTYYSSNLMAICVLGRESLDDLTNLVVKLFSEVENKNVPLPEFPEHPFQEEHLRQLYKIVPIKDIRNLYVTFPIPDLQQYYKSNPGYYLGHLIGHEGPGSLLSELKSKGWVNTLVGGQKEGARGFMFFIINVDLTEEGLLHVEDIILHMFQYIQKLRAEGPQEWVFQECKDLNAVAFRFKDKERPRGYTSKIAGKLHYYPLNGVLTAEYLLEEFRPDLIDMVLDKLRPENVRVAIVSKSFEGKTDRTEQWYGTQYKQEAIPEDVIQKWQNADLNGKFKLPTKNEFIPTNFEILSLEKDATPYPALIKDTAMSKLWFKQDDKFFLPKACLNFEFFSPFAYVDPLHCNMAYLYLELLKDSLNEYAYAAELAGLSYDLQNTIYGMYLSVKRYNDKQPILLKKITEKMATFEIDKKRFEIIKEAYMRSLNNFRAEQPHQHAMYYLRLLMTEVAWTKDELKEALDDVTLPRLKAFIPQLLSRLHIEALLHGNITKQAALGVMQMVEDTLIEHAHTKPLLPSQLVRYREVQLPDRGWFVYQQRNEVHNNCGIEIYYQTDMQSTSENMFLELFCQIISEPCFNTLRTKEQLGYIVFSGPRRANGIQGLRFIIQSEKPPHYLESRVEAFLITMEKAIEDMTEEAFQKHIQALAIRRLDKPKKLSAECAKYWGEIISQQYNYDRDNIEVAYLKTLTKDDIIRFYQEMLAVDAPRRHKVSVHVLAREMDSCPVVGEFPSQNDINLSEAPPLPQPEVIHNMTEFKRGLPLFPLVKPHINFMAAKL

Q: Which “inhibition of CatD activity at 1 μM peptide” value (from here on “inhibition … at 1 μM peptide”) (CatD [1]) does the source give for “Aβ(17–42): α-secretase-derived p3 fragment of APP ending at position 42 (LVFFAEDVGSNKGAIIGLMVGGVVIA; Amyloid-beta protein 42; UniProt P05067 688-713, looked up, fragment)” here?
A: strongly inhibited and > 90%

Q: For “Aβ(33–40): C-terminal fragment corresponding to Aβ(33–42), ending at position 40 (GLMVGGVV; Amyloid-beta protein 40; UniProt P05067 704-711, looked up, fragment)”, which “inhibition … at 1 μM peptide” value (CatD [1]) is on record?
A: modest but statistically significant inhibition

Q: “Aβ(33–42): short C-terminal fragment of Aβ42 (GLMVGGVVIA; Amyloid-beta protein 42; UniProt P05067 704-713, looked up, fragment)” was tested. Which “inhibition … at 1 μM peptide” value (CatD [1]) did it give?
A: failed to inhibit significantly

Q: For “full-length murine Aβ (mAβ(1–42)) (from UniProt P12023 672-713) (peptide)”, which inhibition of CatD activity (fluorogenic substrate) by 1 μM peptide [2] is on record?
A: > 90%

Q: Which “inhibition of Aβ-degrading activity at neutral pH in brain extracts” value [3] does the source give for insulin here?
A: inhibited

Q: For pepstatin A, which “inhibition of Aβ-degrading activity in WT and CatD-HET brain extracts” value (CatD [4]) is on record?
A: largely inhibited; also recorded: inhibited almost completely

Q: With “rodent Aβ42: full-length murine Aβ ending at position 42 (DAEFGHDSGFEVRHQKLVFFAEDVGSNKGAIIGLMVGGVVIA)” as the substance, how does the “inhibition … at 1 μM peptide” value (CatD [1]) read?
A: > 90%

Q: What about the “inhibition … at 1 μM peptide” value (CatD [1]; listed as mAβ(1–42)) of the same substance?
A: strongly inhibited
